In US8981179B2, “Transgenic non-human animal and uses thereof” (Sanofi, priority 2009, dated 2015):

Target: T1, prokineticin 2 receptor (PROK2R) (Mus musculus, UniProt Q8K458)
T1 construct: endogenous in cells; host or cells: primary cortical neurons, E18, CreLuc mouse lines (187 and others)
Assay: Primary cortical neurons CreLuc luciferase assay, Gq modulation
Type: cell-based
From the text: A general schematic of the workflow for the isolation and compound treatment of primary neuronal cells from the CreLuc model is depicted in FIG. 9. Cortices or other brain subregions are removed from embryos, usually embryonic (E) day 17 or 18, but also as early as E14. The individual neurons are then isolated and plated onto 96 well assay plates. Assays are run either in triplicate or quadruplicate. The assays are run from day 3 in culture up until day 7 or day 10 in culture depending on the expression levels of the target GPCR. Compounds are added to the plates then at a set timepoint, Bright Glo (Promega, Cat #E2610) is added to the plates and the assay is then run on a TopCount or other luminometer.
Primary cell cultures from the CreLuc mice may be used to screen compounds that are capable of modulating Gs coupled receptors. The PROK2R is Gq coupled, therefore, prokineticin 2 (PROK2) which is an agonist for the PROK2R was used to see whether CreLuc mice would be responsive to Gq modulation. […]
The effects of PROK2 peptide on luciferase expression in primary cortical neurons from different CreLuc lines was examined. […] Lines were selected based on earlier experiments which determined inducible luciferase levels in whole brain extracts (data not shown). […] BrightGlo was used for the assay and read on a TopCount. […]

T1 sequence (Q8K458 whole entry): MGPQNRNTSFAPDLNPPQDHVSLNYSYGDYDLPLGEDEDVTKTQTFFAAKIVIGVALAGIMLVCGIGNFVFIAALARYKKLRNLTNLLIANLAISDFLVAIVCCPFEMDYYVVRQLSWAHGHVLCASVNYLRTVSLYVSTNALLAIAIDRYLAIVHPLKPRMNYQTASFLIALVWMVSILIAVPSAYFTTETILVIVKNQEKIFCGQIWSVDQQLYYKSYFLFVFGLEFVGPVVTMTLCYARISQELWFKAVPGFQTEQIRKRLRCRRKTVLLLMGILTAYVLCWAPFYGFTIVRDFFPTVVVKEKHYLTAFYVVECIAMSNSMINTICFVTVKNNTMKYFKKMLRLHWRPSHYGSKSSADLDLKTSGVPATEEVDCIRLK

luciferase levels vs media only control (cortical neurons line 187, day 3, 1 nM and 100 nM, 4 hours and 8 hours): Highly significant increases
luciferase levels in cortical neurons from different CreLuc lines (lines 219 and 175, 1 nM and 100 nM, 4 hours and 24 hours): Statistically significant increases
B1: PROK2: prokineticin 2 peptide (Peprotech), agonist for the PROK2R (protein)
chain: AVITGACDKDSQCGGGMCCAVSIWVKSIRICTPMGKLGDSCHPLTRKVPFFGRRMHHTCPCLPGLACLRTSFNRFICLAQK
